Experimental data published in patent US20070056058A1 (TARGETED GROWTH, published 2007).
Where a chain is given by its changes, count along the chain named. Names may count otherwise.

Key:
[1] = molecular target: AtcyclinD2;1/AtCDKA active kinase complex (Arabidopsis) (UniProt P42752); assay: cell-based or functional assay
[2] = molecular target: T1, AtcyclinD2;1/AtCDKA active kinase complex (Arabidopsis, UniProt P42752 1-361; P24100 1-294); assay: cell-based or functional assay
[3] = molecular target: T1, AtcyclinD2;1/AtCDKA active kinase …; assay: in vitro binding experiments
[4] = molecular target: T2, Arabidopsis cyclin D2;1 (AtcyclinD2;1), FLAG tagged (Arabidopsis, UniProt P42752 1-361); assay: in vitro binding, graded (column Cyclin binding)
T2 construct: Made in Sf9 insect cells from the pAcHLT transfer vector; used as insect cell protein extract
T2 sequence: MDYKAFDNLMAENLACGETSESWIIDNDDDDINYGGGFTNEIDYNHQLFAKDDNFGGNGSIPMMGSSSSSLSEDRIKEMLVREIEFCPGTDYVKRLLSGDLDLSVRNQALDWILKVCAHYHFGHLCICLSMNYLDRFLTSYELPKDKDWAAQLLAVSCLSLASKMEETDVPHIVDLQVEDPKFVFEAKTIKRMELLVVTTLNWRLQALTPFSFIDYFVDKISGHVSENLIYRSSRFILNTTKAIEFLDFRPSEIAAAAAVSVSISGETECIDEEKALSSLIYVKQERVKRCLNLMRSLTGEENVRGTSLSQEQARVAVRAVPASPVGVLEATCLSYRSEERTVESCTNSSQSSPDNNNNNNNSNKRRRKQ

AtcyclinD2;1/AtCDKA active kinase complex (Arabidopsis), sequence (P24100 other isoform, or with tags, fused parts or gaps limits assumed): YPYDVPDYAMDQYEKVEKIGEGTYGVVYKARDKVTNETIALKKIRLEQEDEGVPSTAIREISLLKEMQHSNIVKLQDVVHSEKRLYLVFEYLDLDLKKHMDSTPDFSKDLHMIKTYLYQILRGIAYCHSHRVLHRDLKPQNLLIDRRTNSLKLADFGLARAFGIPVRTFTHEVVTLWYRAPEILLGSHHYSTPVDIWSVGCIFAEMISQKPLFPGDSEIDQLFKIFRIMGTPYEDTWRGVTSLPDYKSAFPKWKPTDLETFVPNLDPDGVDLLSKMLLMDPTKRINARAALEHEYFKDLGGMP
T1 sequence (P24100 other isoform, or with tags, fused parts or gaps limits assumed): as above

BnKrp1 #462 (E129A, E130A, I131A, D132A), cyclin binding region mutant
IC50 (inhibitory concentration that reduces the kinase activity by 50%) [1]: 1.25 µg

BnKrp1 E164A; W165A, construct #555
kinase activity restored by 5 µg mutant in the presence of wild-type KRP1 [1]: 14% | kinase activity restored by 10 µg mutant in the presence of wild-type KRP1 [1]: 15%

BnKrp1 Y149A; F151A; F153A, construct #598
kinase activity restored by 5 µg mutant in the presence of 0.6 µg wild-type KRP1 [1]: < 55% | kinase activity restored by 10 µg mutant in the presence of wild-type KRP1 [1]: < 80%

ZmKRP4 (maize KRP, Genbank accession # AY986792)
IC50 of kinase inhibition [1]: 0.035 µg

B1: BnKRP1 wild type (Brassica napus Krp1), construct BnKrp #461 (other, not shown: small tags and cut ends)
chain: MVRKCRKTKGTVGASSTYMQLRSRRIVYRSEKASSSSSSCCASNNNGVIDLEEERDGETETSSCRRSSKRKLFENLREKESMENSQQIVAGFDSAVKESSDCCCSRRTSLSTTEEKGKSATEQPPTAVEIEDFFVEAEKQLHDNFKKKYNFDFEKEKPLEGRYEWVKL
IC50 (inhibitory concentration that reduces the kinase activity by 50%) [2]: 0.035 µg

B2: BnKrp1 Y149A, construct #587 (other)
chain: B1 chain with Y149A
notes: also called BnKrp1 #587; not shown: N-terminal 6xHis and poly-Myc tags of pET16b-5MYC
binding result [3]: binds

B3: BnKrp1 F151A, construct #572 (other)
chain: B1 chain with F151A
notes: also called BnKrp1 #572; not shown: N-terminal 6xHis and poly-Myc tags of pET16b-5MYC
binding result [3]: binds | binding result [4]: binds
